According to the supplement of paper PMC10567573:

B1: MATN2 (parent)
chain: VNVPGSFVCQCYSGYALAEDGKRC

Variants of: B1
Test: protein stability index of a GFP-peptide fusion (GPS, HEK-293T) (PSI 1-6); higher = more stable
Conditions: c terminus: a fixed tail appended
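Also: lentivirally expressed fusions sorted by FACS into six bins by GFP to DsRed ratio, PSI derived from sequencing read proportions per bin multiplied by bin number.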

Protein stability index: each site, then its substitutions
Y15: H 1.91 | N 2.19 | G 2.14 | D 2.03 | T 2.33
C9: I 1.5 | G 2.8 | V 2.32
A18: S 1.93 | D 2.36 | K 1.73 | I 1.64 | H 2.55 | Y 2.84 | C 3.33 | G 1.82 | N 2.09 | F 2.48
K22: Y 1.47 | I 1.5 | P 2.08 | A 2.6 | W 1.9 | F 1.81 | T 2.6 | N 3.34 | G 2.43 | L 1.17
G14: C 2.16 | I 3.06 | S 2.44 | R 2.81 | K 2.7
F7: Q 2.14 | D 2.56 | R 3.21 | L 2.07 | Y 2.01 | H 3.02 | P 3.13
C11: N 2.97 | K 2.87 | V 1.7 | Q 2.94 | E 3.27 | I 1.72 | H 2.65
S6: K 1.89 | G 1.47 | F 3.53 | N 1.43 | D 2.97
G21: W 1.3 | M 3.7 | V 1.88 | F 1.58 | T 3.02 | P 2.38 | I 1.99
L17: M 1.81 | N 1.91 | R 2.54 | Q 2.26 | H 2.27 | T 1.75 | I 1.67 | K 1.81
A16: W 1.05 | F 2.42 | Y 1.1 | Q 1.97 | T 1.93 | P 1.49 | K 1.91 | N 1.45 | G 2.58 | C 3.35 | I 2.11
Q10: R 2.01 | S 2.29 | A 1.56 | E 1.55 | M 2.88
D20: N 1.34 | Y 1.05 | K 1.65 | L 1.11 | A 1.9 | F 2.57
S13: W 3.15 | P 2.47 | K 1.58 | A 2.39
G5: E 1.79 | I 1.45 | Y 1.2 | C 2.68 | T 1.87 | M 1.47 | D 2.06 | N 1.75
V3: C 1.08 | L 2.35 | H 1.81 | A 1.49 | N 1.73 | T 2.39 | F 1.69
R23: S 2.35 | Q 3.67 | P 2.07 | T 2.06 | D 2.78 | A 2.16 | G 2.56 | F 1.69 | N 2.23
Y12: K 1.96 | P 3.02 | E 3.47 | Q 1.76 | T 2.95 | I 1.36 | V 2.13 | R 2 | D 4.36 | S 2.64
C24: D 2.32 | L 1.86 | F 1.83 | G 2.18 | R 1.25 | Y 2.41 | S 2.14 | V 3.76 | H 2.9
E19: S 1.43 | I 2.77 | C 3.15 | T 1.75 | W 1.86 | F 1.17 | M 2.33 | N 2.79
V8: E 2.53 | N 2.51 | I 2.21 | A 2.16 | L 2.35 | C 1.27 | Q 2.51 | S 3.19 | Y 3.01
V1: C 2.15 | Y 2.85 | L 2.17 | S 3.31 | W 2.91
N2: P 2.75 | M 1.71 | Y 1.41 | G 1.89 | W 1.79
P4: H 1.47 | E 2.46 | G 1.86 | A 1.87
